The nanobody polyreactivity screen of Harvey et al. (2022)

Experiment: yeast display, Sf9 membrane polyspecificity reagent, FACS + sequencing; frameworks hold sequencing errors
Outline: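 In a synthetic yeast display library (Saccharomyces cerevisiae BJ5465), nanobody expression was induced with galactose for 36–48 hours. FACS gates were set low and high (top ~1%) using anti-HA fluorescence for expression and streptavidin fluorescence for binding of the Sf9 membrane reagent. Each polyreactivity label is drawn from the gate of origin.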

| Sequence | polyreactivity (PSR sort gate) |
| --- | --- |
| QVQLVESGGGLVQAGGSLRLSCAASGFTFSYYAMGWYRQAPGKERELVASISRSGNTYYADSVKGRFTISRDNAKNTVYLQMNSLKPEDTAVYYCAAKRKSYYSYNFDYWGQGTQVTVSS | high polyreactivity |
| QVQLVESGGGLVQAGGSLRLSCAASGFTFTAYAMGLYRKATGKERELVAGISRRGASTYYADSVKGRFTISRDYAKNTVYLQMNSLKPEDTAVYYCAALGKYIVAWSGDYWGQGTQVTVSS | low polyreactivity |
| QVQLVESGGGLVQAGGSLRLSCAASGFTFTDYAMGWYRQAPGKERELVAAITKGGGRTYYADSVKGRFTISRDNAKNTVYLQMNSLKPEDTAVYYCNARYQVPYGYWGQGTQVTVSS | low polyreactivity |
| QVQLVESGGGLVQAGGSLRLSCAASGFTFTENVMGWYRQAPGKEREFVAAITYIGGRTYYADSVKGRFTISRDNAKNSVYLQMNSLKPEDTAVYYCAADWAYYVASYLYYTFDYWGQGTQVTVSS | low polyreactivity |
| QVQLVESGGGLVQAGGSLRLSCAASGFTFTENVMGWYRQAPGKEREFVAAITYIGGRTYYADSVKGRFTISRDNAKNTVYLQMNSLKPEDTAVYYCAADWAYYVASYLYYTFDYWGQGTQVTVSS | low polyreactivity |
| QVQLVESGGGLVQAGGSLRLSCAASGFTFTGYAMGWYRQAPGKERELVAAISSSGGSTYYADSVKGRFTISRDNAKNTVYLQMNSLKPEDTAVYYCNARISDAHYQCNYFLVLYDYWGQGTQVTVSS | low polyreactivity |
| QVQLVESGGGLVQAGGSLRLSCAASGFTFTIYAMGSNRPAPGKERELVATISGRAGRTYYADSVKGRFTISRDNAKNTVYLQMNSLKPEDPAVYYCTAGQRRYPGLSYYWGQGTQVTVSS | high polyreactivity |
| QVQLVESGGGLVQAGGSLRLSCAASGFTFTLNTMGWYRQAPGKERELVAAISSGGRTYYADSVKGRFTISRDNAKNTVYLQMNSLKPEDTAVYYCAADYTWRFLRFGYWGQGTQVTVSS | high polyreactivity |
| QVQLVESGGGLVQAGGSLRLSCAASGFTFTPNAMGWYRQAPGKERELVAAISGSGGSTYYADSVKGRFTISRDNAKNTVYLQMNSLKPEDTAVYYCAKRRGVYTHWYDYWGQGTQVTVSS | high polyreactivity |
| QVQLVESGGGLVQAGGSLRLSCAASGFTFTPYAMGWYRQAPGKERELVAAITWRGGTYYADSVKGRFTISRDNAKNTVYLQMNSLKPEDTAVYYCAARVWRLYPSTYDYWGQGTQVTVSS | high polyreactivity |
| QVQLVESGGGLVQAGGSLRLSCAASGFTFTPYAMGWYRQAPGKERELVATISWSGGSTYADSVKGRFTISRDNAKNTVYLQMNSLKPEDTAVYYCAADVYGVHAPQSDYWTKYDYWGQGTQVTVSS | low polyreactivity |
| QVQLVESGGGLVQAGGSLRLSCAASGFTFTQNAAMGWYRQAPGKERELVGAISSGGRTYFADSVKGRFTISRDNAKNTVYLQMNSLKPEDTAVYYCAAVYRRSDFRGAKDGYYYWGQGTQVTVSS | low polyreactivity |
| QVQLVESGGGLVQAGGSLRLSCAASGFTFTRNAMGWSRPAPGKERELVAAISKRGGTTYYADSVKGRFTISRDNAKNTVYLQMNSLKPEDTAVYYCAKDGGITGGYWGQGTQVSVSS | high polyreactivity |
| QVQLVESGGGLVQAGGSLRLSCAASGFTFTRYAMGWYRQAPGKERELVAAISSSGGSTYYADSVKGRFTISRDNAKNTVYLQMNSLKPEDTAVYYCNKNWPRLYYYWGQGTQVTVSS | high polyreactivity |
| QVQLVESGGGLVQAGGSLRLSCAASGFTFTRYAMGWYRQAPGKERELVAAITRSGSSTYYADSVKGRFTISRDNAKNTVYLQMNSLKQEDTAVYYCAARLHSPRYRYDYWGQGNQVTVSS | high polyreactivity |
| QVQLVESGGGLVQAGGSLRLSCAASGFTFTRYAMGWYRQAPGTERELVAAISRRGGSTYYADSVKGRFTISRDNAKNTVYLQMNSLKPEDTAVYYCAKDAGSRTVREFGYWGQGTQVTVSS | high polyreactivity |
| QVQLVESGGGLVQAGGSLRLSCAASGFTFTSNAMGWYRQAPGKERELVAAISRSGGRTYYADSVKGRFTISRDNAKNTVYLQLNSLKPEDTAVYYCNVRAEKRSYELYAYDYWGQGTQVTVSS | high polyreactivity |
| QVQLVESGGGLVQAGGSLRLSCAASGFTFTSYAMGWYIQAPGKERELVAAINRSGGSTTYADSVKGRFTISRDNAKNTVYLQMNSQKPEDTAVYYCAKAFRGHYWGQGTQVTVSS | high polyreactivity |
| QVQLVESGGGLVQAGGSLRLSCAASGFTFTTYAMGWYRQAPGKERELVARISRRSGSTYYADSVKGRFTISRDNAKNTVYLQMNSLKPEDTAVYYCNADVDRSTTIFDYWGQGTQVTVSS | high polyreactivity |
| QVQLVESGGGLVQAGGSLRLSCAASGFTFTWYAMGLYRQAPGKERELVAAISSGGGRTYYADSVKGRFTISRDNAKNTVYLQMNRLKPEDTAVYYCNAVAGGVYVDNGYDYWGQGTQVTVSS | high polyreactivity |

| Sequence | polyreactivity (PSR sort gate) |
| --- | --- |
| QVQLVESGGGLVQAGGSLRLSCAASGFTFTYNAMGWYRQAPGKERELVAGITLGSRTNYADSVKGRFTISRDNAKNTVYLQMNSLKPEDTAVYYCAVRYYGGYGYWGQGTQVTVSS | high polyreactivity |
| QVQLVESGGGLVQAGGSLRLSCAASGFTFTYYSMGWYRQAPGKERELVARINSCGNTNYADSVKGRFTISRDNAKNTVYLQMNSLKPEDTAVYSCARDACNRYDYWGQGTQVTVSS | low polyreactivity |
| QVQLVESGGGLVQAGGSLRLSCAASGFTFVAYAMGWYRQAPGKERELVAAISRRGGTTYYADSVKGRFTISRDNEKNTVYLQMNSLKPEDTAVYYCNARSNFAFYRGNWAYDYWGQGTQVTVSS | high polyreactivity |
| QVQLVESGGGLVQAGGSLRLSCAASGFTFVDYDMGWYRQAPGKERELVAAITYSGGSTSYADSVKGRFTISRDYAKNTVYLQMNSLKPEDTAVYYCNTEGFLSAVYAFGYWGQGTQVTVSS | low polyreactivity |
| QVQLVESGGGLVQAGGSLRLSCAASGFTFVDYMGWYRQAPGKERELVAAIDNSGGGTYYADSVKGRFTISRDNAKNTVYLQMNSLKPEDTAVYYRYAYTFYIYEDVLYVQGDYYWGQGTQVTVSS | low polyreactivity |
| QVQLVESGGGLVQAGGSLRLSCAASGFTFVGNAMGWYRQAPGKERELVATITSGGNTKYADSVKGRFTISRDNAKNTVYLQMNSLKPEDTAVYYCAAAKYNYRRFNYWGQGTQVTVSS | low polyreactivity |
| QVQLVESGGGLVQAGGSLRLSCAASGFTFVGYAMGWYRQAPGKERELVAAITRRGGSTYYADSVKGRFTISRDNAKNTVYLQMNSLKPEDTGVYDCNKASYRISVPRYDYWGQGTQVTVSS | high polyreactivity |
| QVQLVESGGGLVQAGGSLRLSCAASGFTFVINDMGWYRQAPGKERELVADITSGGDTYYADSVKGRFTISRDNAKNTVYLQMNSLTPEDTAVYYCAADIYPDWIYLLYGYWGHGTQVTVSS | low polyreactivity |
| QVQLVESGGGLVQAGGSLRLSCAASGFTFVNHAMGWYRQAPGKERELVAAISGGRTTNYADSVKGRFTISRDNAKNTVYLQMNSLKPEDTAVYYCAARRYFGLWYFWYDYWGQGTQVTVSS | high polyreactivity |
| QVQLVESGGGLVQAGGSLRLSCAASGFTFVNYVMGWYRQAPGKERELVAAISRSGGSTYYADSVKGRFTISRDNAKNTVYLQMNSLIPEDTAVYYCAARWFYRAGFNYWGQGTQVTVSS | high polyreactivity |
| QVQLVESGGGLVQAGGSLRLSCAASGFTFVPNTMGWYRQAPGKERELVARIRWRGGSTYYADSVKGRFTISRDNAKNTVYLQMNSLKPEDTAVYYCNAVRGYDARPYSEVYHGEKYYYWGQGTQVTVSS | low polyreactivity |
| QVQLVESGGGLVQAGGSLRLSCAASGFTFVPYAMGWYRPAPGKEREFVAAITSSGTTNYADSVKGRFTISRDNAKNTVYLQMNSLKPEDTAVYYCAADPDSGQVPFDYWGQGTQVTVSS | low polyreactivity |
| QVQLVESGGGLVQAGGSLRLSCAASGFTFVQYAMGWYRPAPGKERELVATITNGGGSTYYADSVKGRFTISRDNAKNTVYLQMNSLKPEDPAVYYCNADSGGRGAPTSTYDYWGQGTQVTLSS | low polyreactivity |
| QVQLVESGGGLVQAGGSLRLSCAASGFTFVRYAMGWYRQAPGKEREFVAAITWSGGGTYYADSVKGRFTISRDNAKNTVYLQMNSLKPEDTAVYYCAADRRAYGGGYWGQGTQVTVSS | high polyreactivity |
| QVQLVESGGGLVQAGGSLRLSCAASGFTFVRYAMGWYRQAPGKERELVAAISSSGGSTYYADSVKGRFTISRDNAKNTVYLQMNSLKPEDTAVYYCAARPYARYSRNIDGYEYWGQGTQVTVSS | high polyreactivity |
| QVQLVESGGGLVQAGGSLRLSCAASGFTFVRYAMGWYRQAPGKERELVAAISSSGSSTYYGDSVKGRFTISRDHEKNTVYLQMNSLKPEDTAVYYFNARAGRGEDYWGQGTQVTVSS | low polyreactivity |
| QVQLVESGGGLVQAGGSLRLSCAASGFTFVSYAMGGYRQAPGKERELVASISSGGSTYYADSVKGRFTISRDNAKNTVYLQMNSLKPEDTAVYYCAAYSRWGRWFTIYNYWGQGTQVTVSS | high polyreactivity |
| QVQLVESGGGLVQAGGSLRLSCAASGFTFVSYAMGWYRQAPGKEREFVATISKRGGSTYYADSVKGRFTNSRDNAKNTVYLQMNSLKPEDTAVYYCAAARNVYRGRVYWGRYDYWGQGTQVTVSS | high polyreactivity |
| QVQLVESGGGLVQAGGSLRLSCAASGFTFVYYAMGWYRPAPGKERDLVATISGNGGRTYYADSVKGRFTISRDNAKNTVYLQMNSLKPEDTAVYYCATDVGFGRKQRPHRPGYGYWGQGTQVTVSS | low polyreactivity |
| QVQLVESGGGLVQAGGSLRLSCAASGFTFVYYAMGWYRQAPGKERELVAAISRGGSTYYADSVKGRFTISRDNAKNTVYLQMNCLKPVDTAVYYCNAKKSGHYVSYPAYDYWGQGTQVTVSS | low polyreactivity |
